Test results as given in patent JP2007302676A (dated 2007).
Positions count from the first letter of the chain named. Names and notes keep the numbering of the source.

B1: hu504.32 (Fab) (Fab, V domains shown)
VH: EVQLVESGGGLVQPGGSLRLSCAASGFFITNNYWGWVRQAPGKGLEWVGYISYSGSTSYNPSLKSRFTISRDTSKNTFYLQMNSLRAEDTAVYYCAMTGSSGYFDFWGQGTLVTVSS
VL: DIQMTQSPSSLSASVGDRVTITCRASESVDDLLHWYQQKPGKAPKLLIKYASQSISGVPSRFSGSGSGTDFTLTISSLQPEDFATYYCQQGNSLPNTFGQGTKVEIKR
B2: Fib504Kグラフト (HVR graft with light chain Y49K, Fab displayed on phage) (Fab, V domains shown)
VH: B1 VH with R71A, F78A
VL: B1 VL with D31T, L32Y
notes: also called hu504Kグラフト; ヒト化504Kグラフト
B3: Fib504グラフト (direct HVR graft, Fab displayed on phage) (Fab, V domains shown)
VH: B1 VH with R71A, F78A
VL: B1 VL with D31T, L32Y, K49Y
notes: Tested as monovalent Fab-g3 on phage (VH-CH1 fused to truncated P3); also called hu504グラフト; ヒト化抗体504グラフト

How the values were obtained:
[1] = biological target: 全長ヒトインテグリンアルファ4ベータ7 (expressed in 293 cells, purified by Fib504 affinity chromatography) (human) (UniProt P13612); experiment: Biacore SPR, Fab immobilised on CM5, alpha4beta7 injected (summary of Table 3)
[2] = biological target: T1, 全長ヒトインテグリンアルファ4ベータ7 (expressed in 293 cells, purified by Fib504 affinity chromatography) (human, UniProt P13612 34-1032; P26010 20-798); experiment: phage-displayed Fab on immobilised human alpha4beta7
T1 construct: mature; also called 固定化アルファ4ベータ7; α4β7

Binder | fold tighter binding relative to the starting rat antibody [1] | binding result [2]
B1 | 3 fold | 
B2 |  | no binding
B3 |  | no binding
